Results: patent US20180030127A1 (APRILBIO, published 2018)

What was measured:
[1] = target: T1, human serum albumin (human, UniProt P02768 25-609); experiment: ELISA, purified soluble Fab on coated HSA
T1 construct: Bought protein; also called HSA; human SA

[2] = target: T2, rat serum albumin (rat, UniProt P02770 25-608); experiment: biolayer interferometry (Octet RED), SL335 on AR2G biosensor, RSA in solution, pH 6.0
T2 construct: Bought protein; also called RSA; rat SA
Protocol: (§1) Real-time binding assays between the purified SL335 and the antigens (human SA, rat SA or mouse SA) were performed using biolayer interferometry with an Octet RED system (ForteBio, Menlo park, Calif., USA) as previously described except that AR2G (Amine Reactive Second-Generation) sensors were used (Costin et al., (2013) J Virol. 87, 52-66). Briefly, the predetermined concentration of SL335 was coupled to kinetics grade AR2G biosensors, and unbound Fab fragments were removed from the surfaces of the sensors by incubating in the kinetics buffer […]. […] The binding and dissociation kinetics were calculated using the Octet QK software package, which fit the observed binding curves to a 1:1 binding model to calculate the association rate constants. The association and dissociation rate constants were calculated using at least three different concentrations of human SA, rat SA or mouse SA. The equilibrium dissociation constants were calculated as the kinetic dissociation rate constant divided by the kinetic association rate constant.
(§2) Since SL335 was the best binder among four anti-human SA Fab clones, its cross-reactivity was further analyzed by ELISA. […] The binding affinities of SL335 to human SA, rat SA and mouse SA at pH 6 or pH 7.4 were further measured via biolayer interferometry by passing through different concentration of the antigens on biosensors that were coated with SL335 (see Table 6 below).

[3] = target: T3, mouse serum albumin (mouse, UniProt P07724 25-608); experiment: biolayer interferometry (Octet RED), SL335 on AR2G biosensor, MSA in solution, pH 6; the filing calls the data unreliable; pH 6; left out of Table 6 for lack of reliability
T3 construct: Bought protein; also called MSA; mouse SA
T3 sequence (P07724 25-608 limits assumed): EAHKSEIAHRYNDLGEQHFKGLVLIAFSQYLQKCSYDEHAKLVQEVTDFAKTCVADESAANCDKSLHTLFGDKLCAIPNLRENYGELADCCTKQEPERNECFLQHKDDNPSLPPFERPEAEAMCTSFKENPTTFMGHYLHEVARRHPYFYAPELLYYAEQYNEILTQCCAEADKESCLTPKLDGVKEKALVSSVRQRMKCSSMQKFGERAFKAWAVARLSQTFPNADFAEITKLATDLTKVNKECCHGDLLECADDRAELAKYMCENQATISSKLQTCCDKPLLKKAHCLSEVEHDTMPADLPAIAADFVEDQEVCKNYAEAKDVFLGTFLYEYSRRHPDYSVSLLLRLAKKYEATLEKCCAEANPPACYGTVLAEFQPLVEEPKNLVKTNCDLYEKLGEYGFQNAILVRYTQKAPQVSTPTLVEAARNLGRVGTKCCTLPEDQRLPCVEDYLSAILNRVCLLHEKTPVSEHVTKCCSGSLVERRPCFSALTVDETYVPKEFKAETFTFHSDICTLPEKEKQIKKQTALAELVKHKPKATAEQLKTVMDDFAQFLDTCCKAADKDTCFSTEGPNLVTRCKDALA
Protocol: as §1

[4] = target: T1, human serum albumin; experiment: biolayer interferometry (Octet RED), SL335 on AR2G biosensor, HSA in solution, pH 6.0
Protocol: as §1, §2

[5] = target: T1, human serum albumin; experiment: ELISA, purified soluble Fab, pH 6
Protocol: (§3) For the monoclonal phage ELISA, the recombinant phage was obtained from positive E. coli clones by phage rescue, and ˜10⁸ CFU/well were added to MaxiSorb ELISA plates (Nunc, Roskilde, Denmark) that were coated with 5 μg/ml HSA, RSA, MSA or BSA. The phage was allowed to bind to the antigens either at pH 6 or at pH 7.4 for 1 h at 37° C. A goat anti-human kappa L Ab-conjugated with HRPO (Sigma-Aldrich) was used as a secondary antibody. The binding signals were visualized with a TMB substrate (BD Science, San Jose, Calif., USA), and the absorbance at 450 nm was measured using an ELISA reader (Bio-Rad, Hercules, Calif., USA). The data represent the average of three experiments standard deviation. For the conventional ELISA, the various antigens [human SA, rat SA, mouse SA, monkey SA (Alpha diagnositic Intl., San Antonio, Tex., USA), canine SA (CUSABIO, Wuhan, Hubei, China). rabbit SA (Sigma-Aldrich), epidermal growth factor receptor (EGFR) (R&D systems, Minneapolis, Minn., USA), epithelial cell adhesion molecule (EpCAM) (R&D systems), IL-15 receptor a (IL-15Ra) (R&D systems), IL-10 (eBioscience, San Diego, Calif., USA), CD16a (R&D systems), c-MET (Sinobiological, Beijing, China)] at 5 μg/ml concentrations were immobilized on the microtiter plates, and the Fab molecules were allowed to bind to the antigens, and detected as above. […]

[6] = target: T3, mouse serum albumin; experiment: biolayer interferometry (Octet RED), SL335 on AR2G biosensor, MSA in solution, pH 7.4; the filing calls the data unreliable; pH 7.4; left out of Table 6 for lack of reliability
Protocol: as §1
Since SL335 was the best binder among four anti-human SA Fab clones, its cross-reactivity was further analyzed by ELISA. […]

[7] = target: T2, rat serum albumin; experiment: ELISA, purified soluble Fab on coated RSA, pH 7.4; rat SA, pH 7.4
Protocol: as §3

[8] = target: T4, bovine serum albumin (bovine, UniProt P02769 25-607); experiment: monoclonal phage ELISA at pH 6, antigen coated at 5 ug/ml, anti-human kappa-HRPO, A450
T4 construct: also called BSA; bovine SA
T4 sequence (P02769 25-607 limits assumed): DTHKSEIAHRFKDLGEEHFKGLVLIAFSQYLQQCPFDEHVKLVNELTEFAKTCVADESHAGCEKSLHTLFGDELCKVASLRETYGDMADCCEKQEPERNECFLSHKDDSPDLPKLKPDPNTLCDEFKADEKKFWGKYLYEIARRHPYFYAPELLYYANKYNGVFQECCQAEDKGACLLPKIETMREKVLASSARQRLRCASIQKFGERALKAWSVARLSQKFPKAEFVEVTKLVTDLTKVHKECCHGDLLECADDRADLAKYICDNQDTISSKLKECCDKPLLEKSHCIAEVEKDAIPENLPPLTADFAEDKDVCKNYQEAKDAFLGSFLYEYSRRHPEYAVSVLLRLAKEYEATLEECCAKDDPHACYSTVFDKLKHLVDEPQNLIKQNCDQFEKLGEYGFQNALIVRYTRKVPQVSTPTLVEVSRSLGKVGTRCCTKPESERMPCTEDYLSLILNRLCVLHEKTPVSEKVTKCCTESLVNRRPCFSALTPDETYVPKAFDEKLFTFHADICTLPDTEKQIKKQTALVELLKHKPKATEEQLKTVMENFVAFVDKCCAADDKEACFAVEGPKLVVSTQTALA
Protocol: For the monoclonal phage ELISA, the recombinant phage was obtained from positive E. coli clones by phage rescue, and ˜10⁸ CFU/well were added to MaxiSorb ELISA plates (Nunc, Roskilde, Denmark) that were coated with 5 μg/ml HSA, RSA, MSA or BSA. The phage was allowed to bind to the antigens either at pH 6 or at pH 7.4 for 1 h at 37° C. A goat anti-human kappa L Ab-conjugated with HRPO (Sigma-Aldrich) was used as a secondary antibody. The binding signals were visualized with a TMB substrate (BD Science, San Jose, Calif., USA), and the absorbance at 450 nm was measured using an ELISA reader (Bio-Rad, Hercules, Calif., USA). The data represent the average of three experiments standard deviation. For the conventional ELISA, the various antigens [human SA, rat SA, mouse SA, monkey SA (Alpha diagnositic Intl., San Antonio, Tex., USA), canine SA (CUSABIO, Wuhan, Hubei, China). rabbit SA (Sigma-Aldrich), epidermal growth factor receptor (EGFR) (R&D systems, Minneapolis, Minn., USA), epithelial cell adhesion molecule (EpCAM) (R&D systems), IL-15 receptor a (IL-15Ra) (R&D systems), IL-10 (eBioscience, San Diego, Calif., USA), CD16a (R&D systems), c-MET (Sinobiological, Beijing, China)] at 5 μg/ml concentrations were immobilized on the microtiter plates, and the Fab molecules were allowed to bind to the antigens, and detected as above. To determine the concentration of soluble Fab or Fab-hGH fusion proteins, a sandwich ELISA was performed using a mouse anti-human IgG Fd mAb (AprilBio) as a capturing Ab and the goat anti-human kappa L chain pAb-HRPO conjugated (Sigma-Aldrich) as a detecting antibody. The human Fab fragment (Bethyl, Montgomery, Tex., USA) with a known concentration was used to draw the standard curve. For detecting the hGH domain, T-20, a goat pAb specific for the C-terminus of the hGH (Santacruz Biotechnology, Dallas, Tex., USA) and NYThGH, a mouse mAb specific for full-length hGH (Prospec, East Brunswick, N.J., USA) were used followed by a rabbit anti-goat IgG pAb-HRPO conjugated (Sigma-Aldrich) or a goat anti-mouse IgG pAb-HRPO conjugated (Sigma-Aldrich), respectively as a secondary antibody. A goat anti-human GCSF pAb (R&D Systems) was used to detecting the G-CSF domain, and a rabbit anti-human IFN-β pAb (PEPROTECH, Rocky Hill, USA) was used to detect the IFN-β domain.

[9] = target: T1, human serum albumin; experiment: ELISA, purified soluble Fab, pH 7.4
Protocol: as §3

[10] = target: T1, human serum albumin; experiment: biolayer interferometry (Octet RED), SL335 on AR2G biosensor, HSA in solution, pH 7.4
Protocol: as §1, §2

[11] = target: T1, human serum albumin; experiment: ELISA, purified soluble Fab on coated HSA, pH 7.4; human SA, pH 7.4
Protocol: as §3

[12] = target: T1, human serum albumin; experiment: ELISA, purified soluble Fab on coated HSA, pH 6; human SA, pH 6
Protocol: as §3

T2 sequence (P02770 25-608 limits assumed): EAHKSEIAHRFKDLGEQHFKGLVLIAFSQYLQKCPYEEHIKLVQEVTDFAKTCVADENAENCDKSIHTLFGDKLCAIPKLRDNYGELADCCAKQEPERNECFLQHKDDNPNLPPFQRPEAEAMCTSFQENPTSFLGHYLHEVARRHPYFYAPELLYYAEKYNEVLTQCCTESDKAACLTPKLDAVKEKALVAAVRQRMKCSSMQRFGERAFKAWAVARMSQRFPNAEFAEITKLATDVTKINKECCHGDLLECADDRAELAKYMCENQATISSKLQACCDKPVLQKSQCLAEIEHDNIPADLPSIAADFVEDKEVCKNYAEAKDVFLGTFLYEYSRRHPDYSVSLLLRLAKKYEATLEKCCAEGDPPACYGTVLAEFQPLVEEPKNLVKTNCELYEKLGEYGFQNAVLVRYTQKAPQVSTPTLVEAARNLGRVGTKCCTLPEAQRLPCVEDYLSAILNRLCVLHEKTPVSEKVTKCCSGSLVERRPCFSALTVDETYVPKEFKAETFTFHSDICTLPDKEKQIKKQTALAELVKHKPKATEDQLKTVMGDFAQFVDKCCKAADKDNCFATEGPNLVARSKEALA

B1: SL335 (Fab, V domains shown)
VH: QVQLVQSGGGPVKPGGSLRLSCAASGFMFRAYSMNWVRQAPGKGLEWVSSISSSGRYIHYADSVKGRFTISRDNAKNSLYLQMNSLRAEDTAVYYCARETVMAGKALDYWGQGTLVTVSS
VL: ELVLTQSPGTLSLSPGETATLSCRASQSVGSNLAWYQQKPGQAPRLLIYGASTGATGVPARFSGSRSGTDFTLTITSLQPEDFATYYCQQYYSFLAKTFGQGTQLEIKR
notes: Human anti-serum albumin Fab in the classic form (VH+CH1 with Cys233, VL+CLk with Cys214); tested on phage and as soluble Fab purified from E. coli; also called SL335wt; SL335 Fab
fold stronger binding at pH 6 than at pH 7.4 [1]: 2 fold | Kd [2]: 122 nM | koff [2]: 0.00576 s⁻¹ | kon [2]: 47100 M⁻¹ s⁻¹ | Kd [3]: ~10000 nM | Kd [4]: 8.68 nM | koff [4]: 0.00155 s⁻¹ | kon [4]: 179000 M⁻¹ s⁻¹ | fold stronger binding than to rat SA at pH 6 [5]: 20 fold | Kd [6]: ~1600 nM | EC50 [7]: 0.16 µg/mL | binding result [8]: no binding | fold stronger binding than to rat SA at pH 7.4 [9]: 4 fold | Kd [10]: 13 nM | koff [10]: 0.00152 s⁻¹ | kon [10]: 117000 M⁻¹ s⁻¹ | EC50 [11]: 0.04 µg/mL | EC50 [12]: 0.02 µg/mL
